These are literature values, as cited in publication PMC8567204.

Like-named read-outs stand apart in the source and are kept apart here.

Targets include Fyn (native) SH3 (UniProt P06241); Fyn (unfolded) SH3 (UniProt P06241); HscB (Escherichia coli) (UniProt P0A6L9).
Series [1] concerns the target Trigger factor (Escherichia coli) (UniProt P0A850).
The target in series [2] is HscA (Escherichia coli) (UniProt P0A6Z1).
Series [3] shares this target. This is another data set of the same source.

Sequence of apo-IscU (P0ACD4 whole entry): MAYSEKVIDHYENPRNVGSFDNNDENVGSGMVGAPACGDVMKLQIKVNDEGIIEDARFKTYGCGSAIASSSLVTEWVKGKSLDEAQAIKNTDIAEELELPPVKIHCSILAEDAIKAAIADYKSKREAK
Sequence of Spy (P77754 24-161): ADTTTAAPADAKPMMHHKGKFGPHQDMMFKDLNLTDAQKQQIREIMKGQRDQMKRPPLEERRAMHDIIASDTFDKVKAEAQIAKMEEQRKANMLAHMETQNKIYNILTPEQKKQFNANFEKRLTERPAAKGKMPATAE
Sequence of HscA (Escherichia coli) (P0A6Z1 whole entry): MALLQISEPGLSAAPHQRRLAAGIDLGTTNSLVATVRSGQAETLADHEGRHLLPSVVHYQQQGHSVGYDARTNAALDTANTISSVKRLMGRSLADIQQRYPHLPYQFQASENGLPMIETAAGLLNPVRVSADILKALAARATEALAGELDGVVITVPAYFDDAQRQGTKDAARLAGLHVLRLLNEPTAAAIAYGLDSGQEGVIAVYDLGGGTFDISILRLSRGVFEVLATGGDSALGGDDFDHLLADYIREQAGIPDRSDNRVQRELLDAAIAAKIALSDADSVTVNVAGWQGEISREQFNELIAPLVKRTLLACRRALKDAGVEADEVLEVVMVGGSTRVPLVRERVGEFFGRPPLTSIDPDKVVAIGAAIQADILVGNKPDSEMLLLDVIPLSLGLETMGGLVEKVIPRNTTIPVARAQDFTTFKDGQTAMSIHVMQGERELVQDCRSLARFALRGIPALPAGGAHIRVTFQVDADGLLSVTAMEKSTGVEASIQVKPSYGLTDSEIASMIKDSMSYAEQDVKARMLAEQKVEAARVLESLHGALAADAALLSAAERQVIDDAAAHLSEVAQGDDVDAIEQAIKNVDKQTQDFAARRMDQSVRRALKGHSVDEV
Sequence of Fyn (unfolded) SH3 (P06241 82-143): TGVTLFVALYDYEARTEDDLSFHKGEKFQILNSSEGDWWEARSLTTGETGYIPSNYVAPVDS
Sequence of Fyn (native) SH3 (P06241 82-143): as above
Sequence of Trigger factor (P0A850 whole entry): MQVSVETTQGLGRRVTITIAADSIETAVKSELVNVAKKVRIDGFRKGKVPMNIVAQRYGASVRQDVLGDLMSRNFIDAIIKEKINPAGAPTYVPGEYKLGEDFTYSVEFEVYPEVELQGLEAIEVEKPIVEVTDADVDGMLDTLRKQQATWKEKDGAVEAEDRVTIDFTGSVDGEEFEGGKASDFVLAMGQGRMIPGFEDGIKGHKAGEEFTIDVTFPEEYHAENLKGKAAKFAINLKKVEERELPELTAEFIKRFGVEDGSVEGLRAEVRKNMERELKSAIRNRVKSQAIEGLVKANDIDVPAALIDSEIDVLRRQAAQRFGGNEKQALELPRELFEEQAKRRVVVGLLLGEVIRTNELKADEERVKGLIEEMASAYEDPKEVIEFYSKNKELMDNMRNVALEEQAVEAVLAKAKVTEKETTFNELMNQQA
Sequence of HscB (Escherichia coli) (P0A6L9 whole entry): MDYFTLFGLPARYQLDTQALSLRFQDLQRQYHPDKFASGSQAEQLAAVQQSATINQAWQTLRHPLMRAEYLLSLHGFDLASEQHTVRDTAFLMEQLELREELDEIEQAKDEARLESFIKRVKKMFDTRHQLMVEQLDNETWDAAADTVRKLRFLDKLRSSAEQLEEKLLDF

As a reminder, the Kd is a measure of binding affinity in units of concentration. On to Spy (from UniProt P77754), for which the Kd is 50 µM with Fyn (native) SH3 and 3 µM in the series with Fyn (unfolded) SH3.

For the substance Trigger factor (from UniProt P0A850), the Kd in series [1] is 2 µM.

As to apo-IscU (from UniProt P0ACD4), the Kd is 37 µM in the series with HscA (Escherichia coli) [2], 9 µM with HscA (Escherichia coli) [3] and 11 µM in the series with HscB (Escherichia coli).
